The values below come from PMC3382582, “The Estrogen-Related Receptor Alpha Upregulates Secretin Expressions in Response to Hypertonicity and Angiotensin II Stimulation”.

For the series, the target named is T1, ERRα (in vitro translated) (Mus musculus, UniProt O08580 1-422).
T1 sequence: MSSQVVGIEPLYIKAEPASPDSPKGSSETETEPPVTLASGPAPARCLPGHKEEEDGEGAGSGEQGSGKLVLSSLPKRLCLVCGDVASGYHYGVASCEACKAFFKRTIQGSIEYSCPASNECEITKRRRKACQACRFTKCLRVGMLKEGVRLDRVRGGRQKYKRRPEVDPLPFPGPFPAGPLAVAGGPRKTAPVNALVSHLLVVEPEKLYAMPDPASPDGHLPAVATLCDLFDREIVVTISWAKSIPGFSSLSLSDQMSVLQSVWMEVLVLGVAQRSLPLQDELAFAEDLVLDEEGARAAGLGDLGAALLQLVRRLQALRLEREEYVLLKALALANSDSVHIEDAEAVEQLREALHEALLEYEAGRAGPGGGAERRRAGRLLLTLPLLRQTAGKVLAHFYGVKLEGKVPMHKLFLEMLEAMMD
Kind of series: EMSA; 2.5 mM MgCl2, poly(dI:dC); EMSA: 10 mM Tris pH 7.5, 50 mM NaCl, 2.5 mM MgCl2, 0.5 mM DTT, 4% glycerol, 2 µg poly(dI:dC), 1 pmol probe, 20 µl, room temperature 15 min; 5% polyacrylamide gel. The conditions noted are these: protein: ivt; label: 32P 5' end label (T4 PNK); strands as printed are 17 and 16 nt; S6 lacks one G relative to the exact complement of S5 (possible misprint). In general terms: A gel shift assay detects complexes by their altered migration in electrophoresis.

B1: GS-ERRα (SCT promoter ERE-half site oligo) (dsDNA)
DNA 1: GCCCCTGACCTTCCCGG
DNA 2: CCGGGAAGGTCAGGGC
For B1, the binding result is on record as “binds”.
